Measurements reported in the nanobody polyreactivity screen of Harvey et al. (2022).

assay: yeast display, Sf9 membrane polyspecificity reagent, FACS + sequencing; frameworks hold sequencing errors
Procedure, shortened: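 A synthetic nanobody library was expressed on Saccharomyces cerevisiae BJ5465 by galactose induction for 36–48 hours. The library was stained for 1 hour at 4 °C with 10% biotinylated, detergent-solubilized Sf9 membrane reagent and enriched with streptavidin microbeads before FACS. Low and high (top ~1%) gates were set on anti-HA fluorescence for expression and streptavidin fluorescence for reagent binding, and each polyreactivity label reflects the gate of origin.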

Row | Sequence | polyreactivity (PSR sort gate)
1 | QVQLVESGGGLVQAGGSLRLSCAASGRIFSYYAMGWYRQAPGKERELVAAISWSGGRTYYADSVKGRFTISRDNAKNTVYLQMNSLKPEDTAVYYCAARLKLYLPRSAYDYWGQGTQVTVSS | high polyreactivity
2 | QVQLVESGGGLVQAGGSLRLSCAASGRIFSYYAMGWYRQAPGKERELVASITSGGSTYADSVKGRFTISRDNAKNTVYLQMNSLKPEDTAVYYCAKGYYWLSTYGDSRYGYWGQGTQVTVSS | high polyreactivity
3 | QVQLVESGGGLVQAGGSLRLSCAASGRIFSYYAMGWYRQAPGKERELVATINSGGSTNYADSVKGRFTISRDNAKNTVYLQMNSLKPVATAVYYCAASPVWWYDYWGQGTQVTVSS | low polyreactivity
4 | QVQLVESGGGLVQAGGSLRLSCAASGRIFSYYAMGWYRQAPGKERELVATISGSGGSTYYADSVKGRFTNSRDNAKNNVYLQMNSLKPEDTAVYYCAARRSGRTRYYWGQGTQVTVSS | high polyreactivity
5 | QVQLVESGGGLVQAGGSLRLSCAASGRIFSYYAMGWYRQAPGTERELVAAISWSGSRTNYADSVKGRFTISRDNAKNTVYLQMKSLKPEDTAVYYCAAEDWSTQGSATVQYDYWGQGTEVTVSS | high polyreactivity
6 | QVQLVESGGGLVQAGGSLRLSCAASGRIFSYYDMGWYRQAPGKERELVARISYSGDSTYYADSVKGRFTISRDNAKNTVYLQMNSLKPEDTAVYYCADEVDSGYSEYYWGQGTQVTVSS | low polyreactivity
7 | QVQLVESGGGLVQAGGSLRLSCAASGRIFTAYYAMGWYRQEPGKESELVASISSSGTSTYADSVKGRFTISRDNAKNSVYLQMISLKPEDTAVYYCATRKLRTRRYDYGYWGQGTQVTVSS | low polyreactivity
8 | QVQLVESGGGLVQAGGSLRLSCAASGRIFTFYAMGWYRQAPAKERELVAAISSGGSTYYADSVKGRFTISRDNAKNTVYLQMNSLKPEDTAVYYCAAEPVWYADYDYWGQGTQVTVSS | low polyreactivity
9 | QVQLVESGGGLVQAGGSLRLSCAASGRIFTGYAMGWYRQAPGKERELVAAISSRGGSTYYADSVKGRFTISRDNAKNTVYLQMNSLKPEDTAVYYCNAYQWRHRYTMYYWGQGTQVTVSS | high polyreactivity
10 | QVQLVESGGGLVQAGGSLRLSCAASGRIFTHNAMGWYRQAPGKERELVAAISYSGVSTYYADSVKGRFTISRDNAKNTVYLHMNSLKPEDTAVYYCNALIQSWRARIRRYYWGQGTQVTVSS | low polyreactivity
11 | QVQLVESGGGLVQAGGSLRLSCAASGRIFTHNAMGWYRQAPGKERELVAAITSGGRTTYADSVKGRFTISRDNAKNTVYLQMNSLKPEDTAVYYCNADTGLGSLDFYNRDYWGHGTQVTVSS | low polyreactivity
12 | QVQLVESGGGLVQAGGSLRLSCAASGRIFTHNVMGWYRQAPGKERELVAAISGGGGSTYYADSVKGRFTISRDNAKNTVYLQMNSLKPEDTAVYYWAAVGFGRQGQEDYWGQGTHVTVSS | low polyreactivity
13 | QVQLVESGGGLVQAGGSLRLSCAASGRIFTIYAMGWYRQAPGKERELVAAISDRGTRTYYADSVKGRFTISRDNAKNTVYLQMNSLKPEDSEVYYCATDALYTYGYDYWGQGTQVTVSS | low polyreactivity
14 | QVQLVESGGGLVQAGGSLRLSCAASGRIFTIYAMGWYRQAPGKERELVATISRRGGSTYYADSVKGRFTISRDNAKNTVYLQMNSLKPEDTAVYYCAADSVITWWAYDYWGQGTQVTVSS | high polyreactivity
15 | QVQLVESGGGLVQAGGSLRLSCAASGRIFTKYAMGWYRQAPGKERELVAAISGSGGNTYYADSVKGRFTISRDNAKNTVYLQMNSLKPEDTAVYYCAVESWRYVGFGYWGQGSQVTVSS | high polyreactivity
16 | QVQLVESGGGLVQAGGSLRLSCAASGRIFTKYAMGWYRQAPGKERELVASISSGGSTYYADSVKGRFTISRDNAKNTVYLQMNSLKPEDTAVYYCARSTGTSRRMDDWGQGTQVTVSS | high polyreactivity

Row | Sequence | polyreactivity (PSR sort gate)
17 | QVQLVESGGGLVQAGGSLRLSCAASGRIFTNAMGWYRQAPGKERELVAAISGGSNTYYADSVKGRFTISRDNAKNTVYLQMNSLKPEDTAVYYCNTDDLWWDGGYDYWGQGTQVTVSS | low polyreactivity
18 | QVQLVESGGGLVQAGGSLRLSCAASGRIFTPNAMGWSRQAPGKERELVAAITWSGDNTYADSVKGRFTISRDNAKNTVYLQMNSLKPEDTAVYYCAAAYGYGHKKYGYWGQGTQVTVSS | low polyreactivity
19 | QVQLVESGGGLVQAGGSLRLSCAASGRIFTPYPMGWYRQAPGKERELVAVIRDGSTYYADSVKGRFTISRDNAKNSVYLQMNSLKPEDSAVYYCRYDIWVWWSGAYDYWGQGTQVTVSS | low polyreactivity
20 | QVQLVESGGGLVQAGGSLRLSCAASGRIFTPYVLGWYRQAPGKERELVARISWTGSSTYYADSVKGRFTISRDNAKNTVYLQMNSLKPEDTAVYYCAKRLTRFYTRLEYWGQGTQVTVSS | low polyreactivity
21 | QVQLVESGGGLVQAGGSLRLSCAASGRIFTPYVMGWYRQAPGKERELVARISWTGSSTYYADSVKGRFTISRDNAKNTVYLQMNSLKPEDTAVYYCAKRLTRFYTRLEYWGQGTQVTVSS | low polyreactivity
22 | QVQLVESGGGLVQAGGSLRLSCAASGRIFTQYAMGWYRQAPGKERELVAAINASDGSTYADSVKGRFTISRDNAKNTVYLQMNSLKPEDSAVYFCYVTGGPYDFTRWSEFDHWGQGTQVTVSS | low polyreactivity
23 | QVQLVESGGGLVQAGGSLRLSCAASGRIFTRNAMGWYRQAPGKERELVAAIRWSGDSTYYADSVKGRFTISRDNAKNTVYLQMNSLKPEDTAVYYCAAYRQRSHRVGTKGHRVGYWGQVTQVTVSS | high polyreactivity
24 | QVQLVESGGGLVQAGGSLRLSCAASGRIFTRNAMGWYRQAPGKERQLVAAISHSGGSTYADSVKGRFTISRDNAKNTVYLQMNSLKPEDTAVYYCAADSPYGYYEGDYCGQGTQVTVSS | low polyreactivity
25 | QVQLVESGGGLVQAGGSLRLSCAASGRIFTRSAMGWYRQAPGKERELVAVITRSGGSTYYADSVKGRFTISRDNAKKTVYLQMNSLKPEDTAVYYCAAKYYGEMYYWGQGTQVTVSS | low polyreactivity
26 | QVQLVESGGGLVQAGGSLRLSCAASGRIFTRYAIGWYRQAPGKERELVAAITYNGGSTYYADSVKGRFTISRDNAKNTVYLQMNSLKPEDTAVYDCNAVYLSWFGLFAGFDYWGQGTQVTVSS | high polyreactivity
27 | QVQLVESGGGLVQAGGSLRLSCAASGRIFTRYAMGWYRQAPGKERELVAAINYRGSSTYYADSVKGRFTISRDNAKKTVYLQMNSLTPEDTAVYYCNTYGQTDTYWRYYYWGQGTQVTVSS | high polyreactivity
28 | QVQLVESGGGLVQAGGSLRLSCAASGRIFTRYAMGWYRQAPGKERELVDGITSRGGSTYYADSVKGRYTISRDNAKNTVYLQMNSLKPEDTAVYYCNKRYTGENDYWGQGTQVTVSS | high polyreactivity
29 | QVQLVESGGGLVQAGGSLRLSCAASGRIFTSNAMGWYRQAPGKEREFVAAITKRGGRTYYADSVKGRFTISRDNAKNTVYLQMNSLKPEDTAVYYCAAGATGTSYYGGDYWGQGTQVTVSS | high polyreactivity
30 | QVQLVESGGGLVQAGGSLRLSCAASGRIFTTYAMGWYRPAPGKERELVAANTSGGRTNYADSVKGRFTISRDNAKNTVYLQMNSLKPEDTAVYYCAADGGVRRLTGLLYSFDYWGQGTQVTVSS | low polyreactivity
31 | QVQLVESGGGLVQAGGSLRLSCAASGRIFTTYAMGWYRQAPGKEREFVAAINYSGGRTYYAESVKGRFTISRDNAKNTVYLQMISLKPEETAVYYCAARSLFRGDYWGQGTQVTVSS | high polyreactivity
32 | QVQLVESGGGLVQAGGSLRLSCAASGRIFTTYAMGWYRQEPGKERELVAAISQNGGSTYYADSVKGRFTISRDNAKNTVYLQMNTLKPEDTAVYYCAAADYYGIRDLYASDGTHYYSWGQGTQVTVSS | low polyreactivity
